Source: US20190106460A1 (published 2019)
Starred links: 1 amine or outer side, 2 acyl side, 3 side chain; linkers in the order of their positions; H or OH if unused. Non-standard residues stand in square brackets, D forms with d. No end group written: not given here. *: point of attachment. Tyr(Me) = O-methyl-L-tyrosine, COc1ccc(C[C@H](N[*:1])C(=O)[*:2])cc1; Phe(4-NO2) = N[C@@H](Cc1ccc([N+](=O)[O-])cc1)C(=O)O; 2,4,6‑trimethylbenzoyl = Cc1cc(C)c(C(=O)*)c(C)c1; Benzenesulfonyl(4-OMe) = COc1ccc(S(=O)(=O)*)cc1; Benzoyl(4-tBu) = CC(C)(C)c1ccc(C(=O)*)cc1; Phe(3-F) = N[C@@H](Cc1cccc(F)c1)C(=O)O; Phe(4-F) = N[C@@H](Cc1ccc(F)cc1)C(=O)O; 1Nal = N[C@@H](Cc1cccc2ccccc12)C(=O)O; Phe(2-F) = N[C@@H](Cc1ccccc1F)C(=O)O; Maleoyl = O=C(/C=C\C(=O)[*:2])[*:1]; Benzoyl(4-Br) = O=C(c1ccc(Br)cc1)*; 2Naphthoyl = O=C(c1ccc2ccccc2c1)*; Benzoyl(4-Me) = Cc1ccc(C(=O)*)cc1; pS = N[C@@H](COP(=O)(O)O)C(=O)O; Suc = O=C(CCC(=O)[*:2])[*:1]; Hexanoyl = CCCCCC(=O)*; Bz = O=C(c1ccccc1)*; Ahx = NCCCCCC(=O)O

B1: Suc-EGF(2F)Y(Me)E-NH2 (peptide)
peptide: Suc-EG[Phe(2-F)][Tyr(Me)]E-NH2
SMILES: COc1ccc(C[C@H](NC(=O)[C@H](Cc2ccccc2F)NC(=O)CNC(=O)[C@H](CCC(=O)O)NC(=O)CCC(=O)O)C(=O)N[C@@H](CCC(=O)O)C(N)=O)cc1
B2: Mal-EGF(3F)F(4NO2)E-NH2 (peptide)
peptide: Maleoyl-EG[Phe(3-F)][Phe(4-NO2)]E-NH2
SMILES: NC(=O)[C@H](CCC(=O)O)NC(=O)[C@H](Cc1ccc([N+](=O)[O-])cc1)NC(=O)[C@H](Cc1cccc(F)c1)NC(=O)CNC(=O)[C@H](CCC(=O)O)NC(=O)/C=C\C(=O)O
B3: Suc-EGF(4NO2)1NalE-NH2 (peptide)
peptide: Suc-EG[Phe(4-NO2)][1Nal]E-NH2
SMILES: NC(=O)[C@H](CCC(=O)O)NC(=O)[C@H](Cc1cccc2ccccc12)NC(=O)[C@H](Cc1ccc([N+](=O)[O-])cc1)NC(=O)CNC(=O)[C@H](CCC(=O)O)NC(=O)CCC(=O)O
B4: Suc-QGF(3F)F(4NO2)E-NH2 (peptide)
peptide: QGXXE
modifications: N-terminal Suc (succinyl) cap; position 3 F(3F); position 4 F(4NO2); C-terminal amide
B5: Suc-EGYF(4NO2)E-NH2 (peptide)
peptide: Suc-EGY[Phe(4-NO2)]E-NH2
SMILES: NC(=O)[C@H](CCC(=O)O)NC(=O)[C@H](Cc1ccc([N+](=O)[O-])cc1)NC(=O)[C@H](Cc1ccc(O)cc1)NC(=O)CNC(=O)[C@H](CCC(=O)O)NC(=O)CCC(=O)O
B6: DpSGIFE-NH2 (peptide)
peptide: D[pS]GIFE-NH2
modifications: N-terminus assumed
SMILES: CC[C@H](C)[C@H](NC(=O)CNC(=O)[C@H](COP(=O)(O)O)NC(=O)[C@@H](N)CC(=O)O)C(=O)N[C@@H](Cc1ccccc1)C(=O)N[C@@H](CCC(=O)O)C(N)=O
B7: Suc-EGF(2F)F(4NO2)E-NH2 (peptide)
peptide: Suc-EG[Phe(2-F)][Phe(4-NO2)]E-NH2
SMILES: NC(=O)[C@H](CCC(=O)O)NC(=O)[C@H](Cc1ccc([N+](=O)[O-])cc1)NC(=O)[C@H](Cc1ccccc1F)NC(=O)CNC(=O)[C@H](CCC(=O)O)NC(=O)CCC(=O)O
B8: Suc-EGF(3F)F(4NO2)E-NH2 (peptide)
peptide: Suc-EG[Phe(3-F)][Phe(4-NO2)]E-NH2
SMILES: NC(=O)[C@H](CCC(=O)O)NC(=O)[C@H](Cc1ccc([N+](=O)[O-])cc1)NC(=O)[C@H](Cc1cccc(F)c1)NC(=O)CNC(=O)[C@H](CCC(=O)O)NC(=O)CCC(=O)O
B9: Suc-EGF(4F)F(4NO2)E-NH2 (peptide)
peptide: Suc-EG[Phe(4-F)][Phe(4-NO2)]E-NH2
SMILES: NC(=O)[C@H](CCC(=O)O)NC(=O)[C@H](Cc1ccc([N+](=O)[O-])cc1)NC(=O)[C@H](Cc1ccc(F)cc1)NC(=O)CNC(=O)[C@H](CCC(=O)O)NC(=O)CCC(=O)O
B10: 4-(MeO)PhSO2-dEGF(3F)WE-NH2 (peptide)
peptide: {Benzenesulfonyl(4-OMe)}-[dD]EG[Phe(3-F)]WE-NH2
SMILES: COc1ccc(S(=O)(=O)N[C@H](CC(=O)O)C(=O)N[C@@H](CCC(=O)O)C(=O)NCC(=O)N[C@@H](Cc2cccc(F)c2)C(=O)N[C@@H](Cc2c[nH]c3ccccc23)C(=O)N[C@@H](CCC(=O)O)C(N)=O)cc1
notes: also called UBP022

What follows are binders tested against Skp2 (UniProt Q13309 1-424, limits assumed) (assay: cell-based or functional assay).
Skp2, sequence (Q13309 whole entry): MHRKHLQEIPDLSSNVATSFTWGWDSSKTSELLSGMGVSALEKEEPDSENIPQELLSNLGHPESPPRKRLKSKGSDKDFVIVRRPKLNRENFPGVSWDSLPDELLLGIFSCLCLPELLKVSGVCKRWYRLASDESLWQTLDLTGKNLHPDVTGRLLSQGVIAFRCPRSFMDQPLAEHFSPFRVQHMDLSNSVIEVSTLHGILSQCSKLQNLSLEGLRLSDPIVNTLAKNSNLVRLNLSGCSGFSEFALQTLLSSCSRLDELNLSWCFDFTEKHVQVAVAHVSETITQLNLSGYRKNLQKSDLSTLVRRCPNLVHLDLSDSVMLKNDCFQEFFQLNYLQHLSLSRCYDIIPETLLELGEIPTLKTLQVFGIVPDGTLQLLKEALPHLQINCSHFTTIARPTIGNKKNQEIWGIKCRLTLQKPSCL
For B1, the “% Inhibition Skp2 @ 10 µM” value was 0% and the “% Inhibition Skp2 @ (100 µM)” value was 4%.
With B2 the “% Inhibition Skp2 @ 10 µM” value was 0% and the “% Inhibition Skp2 @ (100 µM)” value was 14%.
For Suc-EGY[1Nal]E-NH2 [Suc-EGY1NalE-NH2], the “% Inhibition Skp2 @ 10 µM” value was 0% and the “% Inhibition Skp2 @ (100 µM)” value was 6%.
In the case of Suc-EG[Phe(3-F)][1Nal]E-NH2 [Suc-EGF(3F)1NalE-NH2], the “% Inhibition Skp2 @ 10 µM” value is reported as 0% and the “% Inhibition Skp2 @ (100 µM)” value is reported as 12%.
For B3, the “% Inhibition Skp2 @ 10 µM” value was 12% and the “% Inhibition Skp2 @ (100 µM)” value was 6%.
With B4 the “% Inhibition Skp2 @ 10 µM” value was 0% and the “% Inhibition Skp2 @ (100 µM)” value was 0%.
In the case of B5, the “% Inhibition Skp2 @ 10 µM” value is reported as 11% and the “% Inhibition Skp2 @ (100 µM)” value is reported as 31%.
With B6 the “% Inhibition Skp2 @ 10 µM” value was 8% and the “% Inhibition Skp2 @ (100 µM)” value was 13%.
In the case of B7, the “% Inhibition Skp2 @ 10 µM” value is reported as 8% and the “% Inhibition Skp2 @ (100 µM)” value is reported as 11%.
With B8 the “% Inhibition Skp2 @ 10 µM” value was 0% and the “% Inhibition Skp2 @ (100 µM)” value was 3%.
With B9 the “% Inhibition Skp2 @ 10 µM” value was 0% and the “% Inhibition Skp2 @ (100 µM)” value was 0%.

These binders were tested against Fbw7 (UniProt Q969H0 263-707, limits assumed) (assay: cell-based or functional assay).
Fbw7, sequence (Q969H0 263-707 limits assumed): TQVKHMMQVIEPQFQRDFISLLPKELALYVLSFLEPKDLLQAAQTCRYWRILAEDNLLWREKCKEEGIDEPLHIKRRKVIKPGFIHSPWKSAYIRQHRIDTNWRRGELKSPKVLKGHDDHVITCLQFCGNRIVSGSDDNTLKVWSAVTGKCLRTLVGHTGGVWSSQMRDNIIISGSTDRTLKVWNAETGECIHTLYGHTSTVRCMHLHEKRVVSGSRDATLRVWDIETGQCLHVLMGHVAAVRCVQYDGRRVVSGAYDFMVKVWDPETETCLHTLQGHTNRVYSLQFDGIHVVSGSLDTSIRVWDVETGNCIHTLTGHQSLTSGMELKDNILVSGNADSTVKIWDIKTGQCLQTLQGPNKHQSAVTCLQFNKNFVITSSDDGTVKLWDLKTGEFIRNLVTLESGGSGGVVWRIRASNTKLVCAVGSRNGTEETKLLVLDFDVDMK
In the case of B1, the “% Inhibition Fbw7 @ 10 µM” value is reported as 0% and the “% Inhibition Fbw7 @ (100 µM)” value is reported as 4%.
B2 was tested, and the “% Inhibition Fbw7 @ 10 µM” value was 0% and the “% Inhibition Fbw7 @ (100 µM)” value was 18%.
In the case of Suc-EGY[1Nal]E-NH2 [Suc-EGY1NalE-NH2], the “% Inhibition Fbw7 @ 10 µM” value is reported as 1% and the “% Inhibition Fbw7 @ (100 µM)” value is reported as 5%.
In the case of Suc-EG[Phe(3-F)][1Nal]E-NH2 [Suc-EGF(3F)1NalE-NH2], the “% Inhibition Fbw7 @ 10 µM” value is reported as 3% and the “% Inhibition Fbw7 @ (100 µM)” value is reported as 0%.
With B3 the “% Inhibition Fbw7 @ 10 µM” value was 14% and the “% Inhibition Fbw7 @ (100 µM)” value was 28%.
With B4 the “% Inhibition Fbw7 @ 10 µM” value was 0% and the “% Inhibition Fbw7 @ (100 µM)” value was 0%.
In the case of B5, the “% Inhibition Fbw7 @ 10 µM” value is reported as 0% and the “% Inhibition Fbw7 @ (100 µM)” value is reported as 0%.
For B6, the “% Inhibition Fbw7 @ 10 µM” value was 0% and the “% Inhibition Fbw7 @ (100 µM)” value was 0%.
B7 was tested, and the “% Inhibition Fbw7 @ 10 µM” value was 0% and the “% Inhibition Fbw7 @ (100 µM)” value was 0%.
In the case of B8, the “% Inhibition Fbw7 @ 10 µM” value is reported as 0% and the “% Inhibition Fbw7 @ (100 µM)” value is reported as 2%.
For B9, the “% Inhibition Fbw7 @ 10 µM” value was 0% and the “% Inhibition Fbw7 @ (100 µM)” value was 0%.

The binders below were run against T1, Beta Transducin repeat-containing protein (βTrCP), tag cleaved and complexed with Skp1 (UniProt Q9Y297 175-605; P63208 1-163) (assay: FP competition dose-response, fluorescein-IkB peptide tracer on βTrCP/Skp1 (average Ki; assay not given)).
T1 construct: the FP protocol says that Ki is determined from FP dose-response curves; also called βTrCP/Skp1
T1 sequence (Q9Y297 175-605, chain 1 of 2): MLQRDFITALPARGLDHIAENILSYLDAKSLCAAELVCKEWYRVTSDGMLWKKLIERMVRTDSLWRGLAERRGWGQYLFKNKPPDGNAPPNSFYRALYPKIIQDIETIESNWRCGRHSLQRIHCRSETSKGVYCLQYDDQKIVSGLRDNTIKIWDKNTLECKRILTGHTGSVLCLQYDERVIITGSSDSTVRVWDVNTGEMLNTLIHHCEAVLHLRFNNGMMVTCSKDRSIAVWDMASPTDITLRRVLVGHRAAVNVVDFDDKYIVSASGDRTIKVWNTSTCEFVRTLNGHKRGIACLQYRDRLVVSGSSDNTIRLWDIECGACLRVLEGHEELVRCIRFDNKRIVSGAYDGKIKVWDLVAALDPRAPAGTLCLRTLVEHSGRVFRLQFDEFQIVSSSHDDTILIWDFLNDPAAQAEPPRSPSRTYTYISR
T1 sequence (P63208 whole entry, chain 2 of 2): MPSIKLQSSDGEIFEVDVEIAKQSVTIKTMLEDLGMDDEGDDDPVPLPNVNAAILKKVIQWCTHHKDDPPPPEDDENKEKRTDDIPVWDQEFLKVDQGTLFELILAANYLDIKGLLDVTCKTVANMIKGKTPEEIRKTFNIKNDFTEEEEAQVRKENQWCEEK
B10 gave a Ki of 5.78 nM.
With {Benzenesulfonyl(4-OMe)}-[dD]EG[Phe(3-F)]WE[Ahx]K(Benzoyl(4-tBu))-NH2 (also called UBP054) [4-(MeO)PhSO2-dEGF(3F)WE-Ahx-K(NHCO-(4-(t-Bu-Ph))-NH2] the Ki was 1.94 nM.
With {Benzenesulfonyl(4-OMe)}-[dD]EG[Phe(3-F)]WE[Ahx]K(2Naphthoyl)-NH2 (also called UBP055) [4-(MeO)PhSO2-dEGF(3F)WE-Ahx-K(NHCO-2-Naph)-NH2] the Ki was 1.85 nM.
{Benzenesulfonyl(4-OMe)}-[dD]EG[Phe(3-F)]WE[Ahx]K(2,4,6‑trimethylbenzoyl)-NH2 (also called UBP056) [4-(MeO)PhSO2-dEGF(3F)WE-Ahx-K(NHCO-(2,4,6-(Me)3-Ph))-NH2] gave a Ki of 3.39 nM.
Binder {Benzenesulfonyl(4-OMe)}-[dD]EG[Phe(3-F)]WE[Ahx]K(Benzoyl(4-Me))-NH2 (also called UBP057) [4-(MeO)PhSO2-dEGF(3F)WE-Ahx-K(NHCO-(4-(ME)-Ph))-NH2] has a Ki of 2.88 nM.
{Benzenesulfonyl(4-OMe)}-[dD]EG[Phe(3-F)]WE[Ahx]K(Benzoyl(4-Br))-NH2 (also called UBP058) [4-(MeO)PhSO2-dEGF(3F)WE-Ahx-K(NHCO-(4-(Br)-Ph))-NH2] gave a Ki of 3.35 nM.
For {Benzenesulfonyl(4-OMe)}-[dD]EG[Phe(3-F)]WE[Ahx]K(4‑bromophenylsulfonyl)-NH2 (also called UBP059) [4-(MeO)PhSO2-dEGF(3F)WE-Ahx-K(NHSO2-(4-(Br)-Ph))-NH2], the Ki was 2.96 nM.
{Benzenesulfonyl(4-OMe)}-[dD]EG[Phe(3-F)]WE[Ahx]K(4‑chlorobenzoyl)-NH2 (also called UBP060) [4-(MeO)PhSO2-dEGF(3F)WE-Ahx-K(NHCO-(4-(Cl)-Ph))-NH2] showed a Ki of 3.64 nM.
{Benzenesulfonyl(4-OMe)}-[dD]EG[Phe(3-F)]WE[Ahx]K(Bz)-NH2 (also called UBP061) [4-(MeO)PhSO2-dEGF(3F)WE-Ahx-K(NHCOPh)-NH2] gave a Ki of 3.1 nM.
In the case of {Benzenesulfonyl(4-OMe)}-[dD]EG[Phe(3-F)]WE[Ahx]K(3,5‑dichlorobenzoyl)-NH2 (also called UBP062) [4-(MeO)PhSO2-dEGF(3F)WE-Ahx-K(NHCO-(3,5-(Cl)2-Ph))-NH2], the Ki is reported as 6.23 nM.
{Benzenesulfonyl(4-OMe)}-[dD]EG[Phe(3-F)]WE[Ahx]K(Hexanoyl)-NH2 (also called UBP063) [4-(MeO)PhSO2-dEGF(3F)WE-Ahx-K(NHCO-(CH2)4CH3)-NH2] was tested, and the Ki was 5.37 nM.
With {Benzenesulfonyl(4-OMe)}-[dD]EG[Phe(3-F)]WE[Ahx]K(4‑(trifluoromethyl)benzoyl)-NH2 (also called UBP064) [4-(MeO)PhSO2-dEGF(3F)WE-Ahx-K(NHCO-(4-(CF3)-Ph))-NH2] the Ki was 6.39 nM.
